Results published in US20250333521A1 (SYNTHEKINE, published 2025).

T1: human IL10Rb ECD antigen (human, UniProt Q08334 20-220)
T1 construct: Coat of the panning and PE-ELISA plates; also called hIL10Rb extracellular domain; IL10Rb (plate coat)
T1 sequence: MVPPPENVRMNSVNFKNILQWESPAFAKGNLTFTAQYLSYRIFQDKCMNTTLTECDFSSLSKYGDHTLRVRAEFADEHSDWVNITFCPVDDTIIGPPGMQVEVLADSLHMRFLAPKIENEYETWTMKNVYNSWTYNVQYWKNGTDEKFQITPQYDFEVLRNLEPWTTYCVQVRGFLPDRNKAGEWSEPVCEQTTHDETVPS


Target: T1, human IL10Rb ECD antigen
Assay: periplasmic extract ELISA of phage clones on antigen-coated plate
Experimental: Upon completion of the biopanning of Example 3, three 96-well plates of individual phage clones were isolated in order to perform periplasmic extract ELISA (PE-ELISA) on IL10Rb coated plates to identify positive VHH binders that selectively bound IL10Rb. A 96-well plate was coated with IL10Rb and PBS under the same conditions. Next, wells were blocked at 37° C. for 1 h. Then, 100 μl of extracted antibodies was added to each well and incubated for 1 h. Subsequently, 100 μl of anti-tag polyclonal antibody conjugated to HRP was added to each well and incubated at 37° C. for 1 h. Plates were developed with TMB substrate. The reaction was stopped by the addition of H2SO4. Absorbance at 450 nm was read on a microtiter plate reader. Antibodies with absorbance of the antigen-coated well at least threefold greater than PBS-coated control are VHHs that specifically bind to IL10Rb. Positive clones were sequenced, and sequences analyzed to identify unique clonotypes

Row | Binder | binding result
1 | hIL10Rb_VHH-4 (VHH, Periplasmic extract of the phage clone (pMECS, HA/His) as tested in PE-ELISA; not shown: HA/His tag of the pMECS phagemid) VHH: QVQLQESGGGSIQAGGSLRLSCAASRYLYSIDYMAWFRQSPGKEREPVAVIYTASGATFYPDSVKGRFTISQDNAKMTVYLQMNSLKSEDTAMYYCAAVRKTDSYLFDAQSFTYWGQGTQVTVSS | binds
2 | hIL10Rb_VHH-6 (VHH, Periplasmic extract of the phage clone (pMECS, HA/His) as tested in PE-ELISA; not shown: HA/His tag of the pMECS phagemid) VHH: QVQLQESGGGSIQAGGSLTLSCAASRDLYSTNYVAWFRQSPGKEREAVAVIYTASGATLYSDSVKGRFTISQDNAKMTVYLQMNSLKSEDTAMYYCAAVRKTGHYLFDAQSFTYWGQGTQVTVSS | binds
